Among the data in patent publication US20250250357A1 (NANJING ZAIMING PHARMACEUTICAL, published 2025) are OD450 values, retold here.

Assay [1] concerns the target T1, human MSLN-R3 protein (human, UniProt Q13421 487-598).
T1 construct: also called hMSLN-R3
The assay can be described thus: ELISA on coated antigen, antibody 10 nM. In general terms: ELISA stands for enzyme-linked immunosorbent assay.

For assay [2], the target named is T1, human MSLN-R3 protein. The assay can be described thus: ELISA on coated antigen, antibody 0.01 nM.
Assay [3] addresses T2, human MSLN-hFc protein (Acro, Cat. No. MSN-H5253) (human, UniProt Q13421 296-580).
T2 construct: the method names the coated protein as human MSLN-hFc (Acro); also called human MSLN full-length protein
Briefly: ELISA on coated antigen, antibody 0.001 nM.

Assay [4] has as its target T2, human MSLN-hFc protein (Acro, Cat. No. …). The assay can be described thus: ELISA on coated antigen, antibody 10 nM.
Assay [5] shares this target. Briefly: ELISA on coated antigen, antibody 0.0001 nM.
The target is the same in assay [6]. The assay can be described thus: ELISA on coated antigen, antibody 1 nM.
For assay [7] the target is unchanged. Briefly: ELISA on coated antigen, antibody 0.1 nM.
Assay [8] shares this target. The assay can be described thus: ELISA on coated antigen, antibody 0.01 nM.
Assay [9] has the same target. Briefly: ELISA on coated antigen, antibody 100 nM.
Assay [10] deals with T1, human MSLN-R3 protein. The assay can be described thus: ELISA on coated antigen, antibody 100 nM.
Assay [11] deals with T1, human MSLN-R3 protein. The assay can be described thus: ELISA on coated antigen, antibody 0.1 nM.
Assay [12] deals with T1, human MSLN-R3 protein. Briefly: ELISA on coated antigen, antibody 1 nM.
Assay [13] deals with T1, human MSLN-R3 protein. The assay can be described thus: ELISA on coated antigen, antibody 0.001 nM.
Assay [14] addresses T1, human MSLN-R3 protein. Briefly: ELISA on coated antigen, antibody 0.0001 nM.

T1 sequence (Q13421 495-606, form in doubt): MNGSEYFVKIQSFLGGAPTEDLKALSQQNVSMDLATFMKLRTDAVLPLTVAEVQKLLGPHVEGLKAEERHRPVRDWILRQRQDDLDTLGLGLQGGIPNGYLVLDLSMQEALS
T2 sequence (Q13421 other isoform, or with tags, fused parts or gaps limits assumed): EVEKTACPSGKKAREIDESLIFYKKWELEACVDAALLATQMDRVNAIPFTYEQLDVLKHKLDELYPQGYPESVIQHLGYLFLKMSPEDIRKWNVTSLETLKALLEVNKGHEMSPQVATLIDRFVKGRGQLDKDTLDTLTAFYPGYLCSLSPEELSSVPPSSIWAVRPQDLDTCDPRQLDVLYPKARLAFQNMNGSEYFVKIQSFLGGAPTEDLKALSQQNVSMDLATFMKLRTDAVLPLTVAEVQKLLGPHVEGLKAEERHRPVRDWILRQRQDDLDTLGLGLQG

B1: F7.33.24-H5 (scFv, not shown: small tags and cut ends)
scFv: EVQLVQSGAEVKKPGASVKVSCKASGYTFTSYWMHWVRQAPGQRLEWMGNVNPSSGGSNYNEKFKNRVTITVDKSASTAYMELSSLRSEDTAVYYCAPHYIGSRPGFAYWGQGTLVTVSSGGGGSGGGGSGGGGSDIVMTQTPLSLSVTPGQPASISCKASQNVGTNIAWYLQKPGQSPQALIYSASYRYSGVPDRFSGSGSGTDFTLKISRVEAEDVGVYYCQQYNSYPLTFGGGTKVEIK
notes: also called S009-F7.33.24 humanized antibody VH1a + VL2
Regarding B1, the OD450 with human MSLN-R3 protein [1] was determined as 1.53 OD450; with human MSLN-R3 protein [2], 0.04 OD450; in assay [3] it was 0.05 OD450; in [4] it was 1.91 OD450; in [5], 0.05 OD450; in [6] it was 0.33 OD450. Moreover, the OD450 in [7] is 0.07 OD450; in assay [8], 0.04 OD450; in [9] it was 2.85 OD450; with human MSLN-R3 protein [10], 1.92 OD450; with human MSLN-R3 protein [11], 0.06 OD450; with human MSLN-R3 protein [12], 0.39 OD450. For the same molecule, the OD450 with human MSLN-R3 protein [13] and in the assay with human MSLN-R3 protein [14] was 0.04 OD450 each time.

B2: F7.33.24-H9 (scFv, not shown: small tags and cut ends)
scFv: EVQLVQSGAEVKKPGASVKVSCKASGYTFTSYWMHWVRQAPGQGLEWMGNVNPSNGGSNYNEKFKNRVTITVDKSASTAYMELSSLRSEDTAVYYCAPHYIGSRPGFAYWGQGTLVTVSSGGGGSGGGGSGGGGSDIVMTQTPLSLSVTPGQPASISCKASQNVGTNIAWYQQKPGQSPQALIYSASYRYSGVPDRFSGSGSGTDFTLKISRVEAEDVGVYYCQQYNSYPLTFGGGTKVEIK
notes: also called S009-F7.33.24 humanized antibody VH2 + VL3
For the molecule B2, the OD450 turned out to be 2.08 OD450 in the assay with human MSLN-R3 protein [1]; 0.05 OD450 in the assay with human MSLN-R3 protein [2]; 0.04 OD450 in assay [3]; 2.49 OD450 in [4]; 0.05 OD450 in assay [5]; 0.66 OD450 in assay [6]. In addition, the OD450 was 0.1 OD450 in [7]; 0.05 OD450 in [8]; 2.78 OD450 in [9]; 2.25 OD450 with human MSLN-R3 protein [10]; 0.11 OD450 with human MSLN-R3 protein [11]; 0.82 OD450 with human MSLN-R3 protein [12]. Besides, the OD450 with human MSLN-R3 protein [13] and with human MSLN-R3 protein [14] was 0.04 OD450 each time.

B3: F7.33.24-H6 (scFv, not shown: small tags and cut ends)
scFv: EVQLVQSGAEVKKPGASVKVSCKASGYTFTSYWMHWVRQAPGQRLEWMGNVNPSSGGSNYNEKFKNRVTITVDKSASTAYMELSSLRSEDTAVYYCAPHYIGSRPGFAYWGQGTLVTVSSGGGGSGGGGSGGGGSDIVMTQTPLSLSVTPGQPASISCKASQNVGTNIAWYQQKPGQSPQALIYSASYRYSGVPDRFSGSGSGTDFTLKISRVEAEDVGVYYCQQYNSYPLTFGGGTKVEIK
notes: also called S009-F7.33.24 humanized antibody VH1a + VL3
Turning to B3, the OD450 in the assay with human MSLN-R3 protein [1] amounted to 1.74 OD450; with human MSLN-R3 protein [2], 0.04 OD450; in assay [3], 0.05 OD450; in [4] it was 2.36 OD450; in assay [5] it was 0.05 OD450; in assay [6] it was 0.45 OD450. Further, the OD450 in assay [7] was 0.08 OD450; in assay [8], 0.05 OD450; in assay [9], 2.96 OD450; with human MSLN-R3 protein [10] it was 1.98 OD450; with human MSLN-R3 protein [11] it was 0.07 OD450; in the assay with human MSLN-R3 protein [12] it was 0.53 OD450. The OD450 in the assay with human MSLN-R3 protein [13] and with human MSLN-R3 protein [14] was 0.04 OD450 throughout.

B4: F7.33.24-H11 (scFv, not shown: small tags and cut ends)
scFv: EVQLVQSGAEVKKPGASVKVSCKASGYTFTSYWMHWVRQAPGQGLEWMGNVNPSNAGSNYNEKFKNRVTITVDKSASTAYMELSSLRSEDTAVYYCAPHYIGSRPGFAYWGQGTLVTVSSGGGGSGGGGSGGGGSDIVMTQTPLSLSVTPGQPASISCKASQNVGTNIAWYLQKPGQSPQALIYSASYRYSGVPDRFSGSGSGTDFTLKISRVEAEDVGVYYCQQYNSYPLTFGGGTKVEIK
notes: also called S009-F7.33.24 humanized antibody VH2a + VL2
With B4, the OD450 came to 1.94 OD450 with human MSLN-R3 protein [1]; 0.05 OD450 in the assay with human MSLN-R3 protein [2]; 0.04 OD450 in [3]; 2.18 OD450 in assay [4]; 0.04 OD450 in assay [5]; 0.57 OD450 in assay [6]. For the same molecule, the OD450 in assay [7] is 0.09 OD450; in assay [8] it was 0.04 OD450; in assay [9], 2.65 OD450; with human MSLN-R3 protein [10], 2.1 OD450; in the assay with human MSLN-R3 protein [11], 0.09 OD450; with human MSLN-R3 protein [12], 0.68 OD450. The OD450 with human MSLN-R3 protein [13] worked out at 0.04 OD450; in the assay with human MSLN-R3 protein [14], 0.05 OD450.

B5: F7.33.24-H12 (scFv, not shown: small tags and cut ends)
scFv: EVQLVQSGAEVKKPGASVKVSCKASGYTFTSYWMHWVRQAPGQGLEWMGNVNPSNAGSNYNEKFKNRVTITVDKSASTAYMELSSLRSEDTAVYYCAPHYIGSRPGFAYWGQGTLVTVSSGGGGSGGGGSGGGGSDIVMTQTPLSLSVTPGQPASISCKASQNVGTNIAWYQQKPGQSPQALIYSASYRYSGVPDRFSGSGSGTDFTLKISRVEAEDVGVYYCQQYNSYPLTFGGGTKVEIK
notes: also called S009-F7.33.24 humanized antibody VH2a + VL3
In the case of B5, the OD450 turned out to be 1.95 OD450 with human MSLN-R3 protein [1]; 0.04 OD450 in the assay with human MSLN-R3 protein [2]; 0.04 OD450 in [3]; 2.28 OD450 in [4]; 0.05 OD450 in [5]; 0.58 OD450 in assay [6]. The OD450 in [7] worked out at 0.1 OD450; in assay [8] it was 0.04 OD450; in assay [9] it was 2.65 OD450; in the assay with human MSLN-R3 protein [10], 2.04 OD450; with human MSLN-R3 protein [11], 0.09 OD450; in the assay with human MSLN-R3 protein [12], 0.65 OD450. In addition, the OD450 with human MSLN-R3 protein [13] and in the assay with human MSLN-R3 protein [14] was 0.04 OD450 in each case.

B6: F7.33.24-H8 (scFv, not shown: small tags and cut ends)
scFv: EVQLVQSGAEVKKPGASVKVSCKASGYTFTSYWMHWVRQAPGQGLEWMGNVNPSNGGSNYNEKFKNRVTITVDKSASTAYMELSSLRSEDTAVYYCAPHYIGSRPGFAYWGQGTLVTVSSGGGGSGGGGSGGGGSDIVMTQTPLSLSVTPGQPASISCKASQNVGTNIAWYLQKPGQSPQALIYSASYRYSGVPDRFSGSGSGTDFTLKISRVEAEDVGVYYCQQYNSYPLTFGGGTKVEIK
notes: also called S009-F7.33.24 humanized antibody VH2 + VL2
Take B6: the OD450 stood at 1.92 OD450 with human MSLN-R3 protein [1]; 0.05 OD450 with human MSLN-R3 protein [2]; 0.05 OD450 in assay [3]; 2.04 OD450 in [4]; 0.05 OD450 in [5]; 0.48 OD450 in assay [6]. Besides, the OD450 in [7] was 0.09 OD450; in assay [8] it was 0.05 OD450; in [9], 2.7 OD450; with human MSLN-R3 protein [10] it was 2.16 OD450; in the assay with human MSLN-R3 protein [11], 0.09 OD450; in the assay with human MSLN-R3 protein [12], 0.63 OD450. For the same molecule, the values for the OD450 in the assay with human MSLN-R3 protein [13] and in the assay with human MSLN-R3 protein [14] were 0.04 OD450 and 0.05 OD450, respectively.

B7: F7.33.24 (scFv, not shown: small tags and cut ends)
scFv: QVQLQQPGTELVKPGASVKLSCKASGYTFTSYWMHWVKQRPGQGLEWIGNVNPSNGGSNYNEKFKNKATLTVDKSSSTADMQLNSLTSEDSAVYYCAPHYIGSRPGFAYWGQGTLVTVSGGGGGSGGGGSGGGGSDIVMTQSQKFMSTSVGDRVSVTCKASQNVGTNIAWYQQKPGQSPKALIYSASYRYSGVPDRFTGSGSGTDFTLTITNVQSEDLAEYFCQQYNSYPLTFGGGTKVEIK
notes: also called S009-F7.33.24 (parental variable regions, in the humanized-antibody ELISA)
For the molecule B7, the OD450 with human MSLN-R3 protein [1] came out at 1.78 OD450; with human MSLN-R3 protein [2] it was 0.04 OD450; in assay [3], 0.26 OD450; in [4], 1.63 OD450; in assay [5] it was 0.04 OD450; in assay [6], 0.27 OD450. Further, the OD450 in assay [7] was 0.06 OD450; in assay [8] it was 0.21 OD450; in [9] it was 2.58 OD450; with human MSLN-R3 protein [10] it was 1.92 OD450; with human MSLN-R3 protein [11] it was 0.09 OD450; with human MSLN-R3 protein [12], 0.71 OD450. Besides, the OD450 with human MSLN-R3 protein [13] and in the assay with human MSLN-R3 protein [14] was 0.04 OD450 in each case.
